Laboratory results taken from patent US20180112008A1 (Memorial Sloan Kettering, published 2018).
Ends that are not written are not given here. * marks the point of attachment. GlcNAc2 = N-linked chitobiose, CC(=O)N[C@@H]1[C@@H](O)[C@H](O[C@@H]2O[C@H](CO)[C@@H](O)[C@H](O)[C@H]2NC(C)=O)[C@@H](CO)O[C@H]1*

How the values were obtained:
[1] = target: T1, MUC16^c114 (human, capable of N-glycosylation at Asn1, Asn24 and Asn30 ; chain 1 pos 1, 24, 30: Asn capable of N-glycosylation on the transfected cells, written N); assay: FACS, SKOV3-c114
T1 construct: The forward primer adds Met-Val before Asn1; also called MUC16^c114-GFP; SKOV3 MUC16^c114; not shown: hrGFP of the phrGFP II-C vector fused at the cytoplasmic carboxy-terminus, with its short cloning linker
T1 chain: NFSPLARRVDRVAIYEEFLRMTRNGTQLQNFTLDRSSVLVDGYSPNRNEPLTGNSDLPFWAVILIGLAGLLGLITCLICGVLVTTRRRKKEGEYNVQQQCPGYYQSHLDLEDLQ

[2] = target: T2, GlcNAc2-15-mer glycopeptide, unconjugated (human); assay: sandwich ELISA on 'MUC16 15mer + GlcNAc2'; Blank 0.019
T2 construct: Cys plus G25-V38 of MUC16^c114; Used in ELISA without KLH; also called 15-mer(chitobiose)[C-G25-V38]; 15mer-chitobiose peptide
T2 peptide: Ac-CGTQLQN(GlcNAc2)FTLDRSSV-NH2

[3] = target: T3, MUC16 unrelated peptide 18mer; assay: sandwich ELISA
T3 construct: Negative control peptide without glycan
T3 peptide: GAVPRSATINVSRIATGP

[4] = target: T4, MUC16 unrelated peptide 18mer+GlcNAc2 (also: GlcNAc2 (chitobiose), site not given here); assay: sandwich ELISA
T4 construct: Negative control glycopeptide; also called unrelated chitobiose-linked peptide
T4 peptide: GAVPRSATINVSRIATGP

[5] = target: T5, MUC16 nonglycosylated peptide 2 (human); assay: sandwich ELISA
T5 construct: Peptide used to elicit the 4H11 antibody; also called nonglycosylated MUC16 peptide 2
T5 peptide: CTLDRSSVLVDGYSPNRNE

[6] = target: T6, MUC16 18mer (not fully specified); assay: ELISA 12/24/13 (sups from time of freezing), dilution 400, column 18
T6 construct: also called non-glycosylated 18-mer MUC16 peptide
T6 peptide: CTRNGTQLQNFTLDRSSV

[7] = target: T7, (GlcNAc2)2-18-mer glycopeptide, unconjugated (human); assay: ELISA 12/24/13 (sups from time of freezing), dilution 400, column 18S
T7 construct: Used in ELISA without KLH; also called 18-mer(chitobiose)2[C-T22-V38]; 18mer-chitobiose peptide
T7 peptide: Ac-CTRN(GlcNAc2)GTQLQN(GlcNAc2)FTLDRSSV-NH2

[8] = target: T2, GlcNAc2-15-mer glycopeptide, …; assay: ELISA 12/24/13 (sups from time of freezing), dilution 400, column 15S
[9] = target: T8, MUC16^c114 on SKOV3 cells with MGAT5 knock-down (human, N-glycans without MGAT5-dependent tetra-antennary branching ; chain 1 pos 1, 24 and 30: N-glycosylated Asn, written N; the glycans lack MGAT5-dependent tetra-antennary branching (shRNA knock-down)); assay: FACS, SKOV3-shMGAT5-c114
T8 construct: Same polypeptide as MUC16^c114, other glycoform (shRNA against MGAT5); also called SKOV3-shMGAT5-c114; MUC16^c114-shMGAT5; not shown: hrGFP of the phrGFP II-C vector, fused at the cytoplasmic carboxy-terminus
T8 chain: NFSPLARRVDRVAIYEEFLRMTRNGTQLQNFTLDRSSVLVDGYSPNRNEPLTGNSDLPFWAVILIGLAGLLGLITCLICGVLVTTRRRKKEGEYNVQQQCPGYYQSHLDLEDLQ

[10] = target: T9, MUC16 18mer + GlcNAc1 (also: N-linked single GlcNAc, Asn (N4, N10 or both) not given here); assay: sandwich ELISA on 'MUC16 18mer + GlcNAc1'; Blank 0.042
T9 construct: also called 18-mer with a single GlcNAc
T9 peptide: CTRNGTQLQNFTLDRSSV

[11] = target: T10, biotinylated chitobiose-conjugated 18-mer glycopeptide (human, also: biotinylated, site not given here); assay: binding affinity table of Example 3; target not named there, taken as in Table 9 (Octet BLI, biotinylated chitobiose 18-mer)
T10 construct: Cys plus T22-V38 of MUC16^c114; The range is derived from T22-V38 and the statement that c114 is 1777-1890; the N-terminal Cys is added; also called (GlcNAc2)2-18-mer, biotinylated; 18-mer(chitobiose)2[C-T22-V38]
T10 peptide: Ac-CTRN(GlcNAc2)GTQLQN(GlcNAc2)FTLDRSSV-NH2
Procedure, shortened: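 Binding was measured by biolayer interferometry on a ForteBio Octet QK, with 5 μg/mL biotinylated chitobiose-conjugated 18-mer glycopeptide loaded onto streptavidin biosensors. Excess antigen was washed off, and mouse antibodies were run at 10 μg/mL for association and dissociation steps. Kd, kon and koff came from a 1:1 binding site model with partial fit.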

[12] = target: T10, biotinylated chitobiose-conjugated …; assay: BLI (Octet QK), biotinylated glycopeptide on streptavidin sensor, antibody 10 ug/mL, 1:1 model
Method: Binding affinity was determined using ForeBio Octet QK. 5 μg/mL of biotinylated chitobiose-conjugated 18-mer glycopeptide was loaded onto a streptavidin biosensor. After washing off excess antigen, mouse antibodies were tested at 10 μg/mL for association and dissociation steps, respectively. Binding parameters were calculated using 1:1 binding site model, partial fit.

[13] = target: T11, MUC16 18mer + GlcNAc2-Trimannose (also: N-linked Man3GlcNAc2, Asn site not given here); assay: sandwich ELISA on 'MUC16 18mer + GlcNAc2-Trimannose'; Blank 0.035
T11 construct: also called 18-mer with Man3GlcNAc2
T11 peptide: CTRNGTQLQNFTLDRSSV

[14] = target: T12, MUC16^c114-N2 (human, chain 1 pos 1 and pos 30: N-glycosylated Asn (cell-made glycans), written N); assay: FACS, SKOV3-N24 mutc114
T12 construct: MUC16^c114 with Asn24 (Asn1800) changed to Ala, on SKOV3 cells; also called N24 mut c114; SKOV3-N24 mutc114; not shown: hrGFP of the phrGFP II-C vector, fused at the cytoplasmic carboxy-terminus
T12 chain: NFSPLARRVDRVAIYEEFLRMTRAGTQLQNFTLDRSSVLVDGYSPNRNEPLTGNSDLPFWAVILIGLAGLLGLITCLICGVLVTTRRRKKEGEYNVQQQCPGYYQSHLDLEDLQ

[15] = target: T6, MUC16 18mer; assay: sandwich ELISA on 'MUC16 18mer'; Blank 0.032
[16] = target: T13, non-glycosylated 15-mer MUC16 peptide (human); assay: sandwich ELISA on 'MUC16 15mer'; Blank 0.021
T13 construct: Same peptide as the GlcNAc2-15-mer without the glycan; also called unglycosylated 15-mer
T13 peptide: CGTQLQNFTLDRSSV

B1: 18C6.D12 (antibody, V domains shown)
VH: QVTLKESGPGILQPSQTLSLTCSFSGFSLSTVGMGVGWSRQPSGKGLEWLAHIWWDDEDKYYNPALKSRLTISKDTSKNQVFLKIANVDTADTATYYCTRIGTAQATDALDYWGQGTSVTVSS
VL: DIVMTQAAPSVPVTPGESVSISCRSSKSLLHSNGNTYLYWFLQRPGQSPQRLIYYMSNLASGVPDRFSGRGSGTDFTLRISRVEAEDVGVYYCMQSLEYPLTFGGGTKLEIK
notes: Mouse monoclonal from a hybridoma; also called MUC16 Glycosylation Antibody 18C6
B1 was tested, and the “geometric mean phycoerythrin (PE) fluorescence” value (“geometric mean phycoerythrin” below) [1] was 2050, the ELISA signal [2] was 1.44 and the binding result [3] was “no binding”. For the same binder, the binding result [4] was “no binding”, the binding result [5] was “no binding” and the ELISA signal [6] was 0.45. The ELISA signal [7] was 0.55, the ELISA signal [8] was 0.14 and the “geometric mean phycoerythrin” value [9] was 855. It also gave an ELISA signal [10] of 0.95, a Kd [11] of 11.1 nM and a koff [11] of 0.000678 s⁻¹. The Kd [12] was 11.1 nM, the koff [12] was 0.000678 s⁻¹ and the ELISA signal [13] was 0.89. For the same binder, the “geometric mean phycoerythrin” value [14] was 1830, the ELISA signal [15] was 1.01 and the ELISA signal [16] was 1.06.

B2: 19C11.H6 (antibody, V domains shown)
VH: QVNLKESGPGKLQPSQTLSLTCSFSGFSLSTLGMGVGWIRQSSGKGLEWLAHIWWDDDKYYNPALKSRLTISRATSKNQVFLKIVNVGTADTATYYCARIGTAQATDALDYWGQGTSVTVSS
VL: DIVMTQAAPSIPVTPGESVSISCRSSKSLLHSNGNTYLYWFLQRPGQSPQRLIYYMSNLASGVPDRFSGRGSGTDFTLKISRVEAGDVGVYYCMQGLEHPLTFGGGTKLEIK
notes: Mouse monoclonal from a hybridoma; Used as 89Zr-DFO-labelled antibody in the internalization assay; also called MUC16 Glycosylation Antibody 19C11
With B2 the “geometric mean phycoerythrin” value [1] was 617, the ELISA signal [2] was 1.51 and the binding result [3] was “no binding”. The binding result [4] was “no binding”, the binding result [5] was “no binding” and the ELISA signal [6] was 0.2. The ELISA signal [7] was 0.36, the ELISA signal [8] was 0.1 and the “geometric mean phycoerythrin” value [9] was 525. For the same binder, the ELISA signal [10] was 0.96, the Kd [11] was 63.7 nM and the koff [11] was 0.00242 s⁻¹. It also gave a kon [11] of 38000 M⁻¹ s⁻¹, a Kd [12] of 63.7 nM and a koff [12] of 0.00242 s⁻¹. For the same binder, the ELISA signal [13] was 0.99, the “geometric mean phycoerythrin” value [14] was 486 and the ELISA signal [15] was 0.98. The ELISA signal [16] was 1.17.

B3: 7B12.B3 (antibody, V domains shown)
VH: QVTLKESGPGILQPSQTLSLTCSFSGFSLSTVGMGVGWSRQPSGKGLEWLAHIWWDDEDKYYNPALKSRLTISKDTSKNQVFLKIANVDTADSATYYCTRIGTAQATDALDYWGQGTSVTVSS
VL: DIVMTQAAPSVSVTPGESVSISCRSSKSLRKSNGNTYLYWFLQRPGQSPQRLIYYMSNLASGVPDRFSGRGSGTDFTLRISRVEAEDVGVYYCMQSLEYPLTFGGGTKLKIK
notes: Mouse monoclonal from a hybridoma; also called MUC16 Glycosylation Antibody 7B12
With B3 the “geometric mean phycoerythrin” value [1] was 492, the ELISA signal [2] was 1.32 and the binding result [3] was “no binding”. For the same binder, the binding result [4] was “no binding”, the binding result [5] was “no binding” and the ELISA signal [6] was 0.33. For the same binder, the ELISA signal [7] was 0.51, the ELISA signal [8] was 0.25 and the “geometric mean phycoerythrin” value [9] was 289. It also gave an ELISA signal [10] of 1.03, a Kd [11] of 13.8 nM and a koff [11] of 0.00104 s⁻¹. The Kd [12] was 13.8 nM, the koff [12] was 0.00104 s⁻¹ and the ELISA signal [13] was 1.05. For the same binder, the “geometric mean phycoerythrin” value [14] was 471, the ELISA signal [15] was 1.09 and the ELISA signal [16] was 1.21.
